Patent US20050244864A1, “Development and use of fluorescent probes of unbound analytes” (priority 2004, published 2005)
Substitutions are numbered along the chain they refer to. In names and notes the source's numbering stands.

B1: L2P14F7: UCB probe from rI-FABP-L72A; mutations 18G 31 M 72A (protein, UniProt P02693 2-132, looked up, variant M18G G31M L72A)
Fatty acid-binding protein, …: AFDGTWKVDRNENYEKFGEKMGINVVKRKLMAHDNLKLTITQEGNKFTVKESSNFRNIDVVFELGVDFAYSAADGTELTGTWTMEGNKLVGKFKRVDNGKELIAVREISGNELIQTYTYEGVEAKRIFKKE
modifications: fluorescent label
notes: UCB probe from rI-FABP-L72A; mutations 18G 31 M 72A
B2: ADIFAB2: rI-FABP with Ala substituted for Leu at position 72 (rI-FABP-L72A), derivatized with acrylodan; reference probe (protein, UniProt P02693 2-132, looked up, variant L72A)
Fatty acid-binding protein, …: B1 Fatty acid-binding protein, … with G18M, M31G
modifications: acrylodan label

How the values were obtained:
[1] = Probe response to plasma samples from healthy adult donors, with and without 5 μM UCB
Protocol: The response of L2P14F7 to plasma samples from healthy adult donors, for which the UCBu concentration is expected to be about 1 nM or less, was measured (FIG. 5). Samples were diluted to 1% by volume in pH 7.4 HEPES buffer.

[2] = Binding isotherm: probe titrated with UCB, Kd; conditions: non-linear fit to binding isotherm; 1 μM probe titrated with UCB (FIG. 3); read-out: Kd
Protocol: (§1) Larger preparations of select probes were prepared for quantitative determination of binding affinities. Binding isothermns were performed by measuring the fluorescence intensity for 1 μM of a given probe as the probe was titrated with known quantities of UCB. […] Table 3 lists the Kd values and mutations for some example probes. […] This property was confirmed by titration of a mixture of 0.5 μM UCB and 1 μM L2P14F7 with sodium oleate. […] Oleic acid is the most abundant FFA in serum, and measurements of normal serum samples indicate that typical unbound concentrations of oleic acid are less than 1 nM. By using non-responsive probes from FFA screening to conduct a secondary screening with other unbound analytes, a UCB-sensitive probe that has a negligible response to the major FFA in blood has been generated from a rI-FABP-L72A mutant.

[3] = Titration of UCB and probe mixture with sodium oleate; assay type: binding; conditions: mixture of 0.5 μM UCB and 1 μM probe; after 1 μM total oleate added (FIG. 4)
Protocol: as §1

[4] = Probe calibration: binding affinities for fatty acids
Protocol: In a preferred embodiment, the template FABP is recombinant rat intestinal fatty acid binding protein (rI-FABP). Derivatization with acrylodan is performed using known methods substantially as previously described (U.S. Pat. No. 5,470,714 & Richieri, G. V, et al., J. Biol. Chem., (1992) 276: 23495-23501), and the resulting probe (ADIFAB) is commercially available (FFA Sciences LLC, San Diego, Calif.). […] The wavelength emitted by the fluorescently-labeled FABP depends upon the label and protein used. In an alternate preferred embodiment, the template protein is rI-FABP that has Ala substituted for Leu at position 72 (rI-FABP-L72A) with the resulting probe named ADIFAB2. […] Experiments typically involve measuring the fluorescence response within both emission maxima or at wavelengths for which the effect of interfering molecules such as hemoglobin can be eliminated as described in (U.S. application Ser. No. 10/670,958 and PCT/US2004/030521) and the calculation of the ratio ‘R’ of the two fluorescence intensities. The baseline value for this ratio, measured in the absence of analyte, is designated R0.
For each probe considered to have a useful phenotype, the sequence is determined, milligram quantities of the probe are prepared and the probe is calibrated. […] Spectra of probes were analyzed for true ratio behavior. […]

[5] = Screening of FFA-insensitive probes for response to UCB:BSA complexes (ΔI/Io); assay type: binding; conditions: fractional change in fluorescence intensity
Protocol: A probe for unbound unconjugated bilirubin (UCBu) was developed and used to measure concentrations of UCBu in plasma spiked with a defined quantity of unconjugated bilirubin (UCB). Using 384-well plates, 335 mutant probes that were insensitive to FFA were screened for their response to UCB:BSA complexes at UCB:BSA ratios of 1:1 and 1:2 in aqueous buffer. All probes were prepared from rI-FABP-L72A with 1 to 5 mutations. Screening was conducted by comparing the fractional change in fluorescence intensity (ΔI/Io, where ΔI is the difference in probe intensity in the presence and absence of UCB and Io is the intensity in the absence of UCB) for the probes with that for ADIFAB2. This value was calculated for two emission wavelengths: 440 and 500 nm. […] The emitted fluorescence of these probes is quenched by binding of UCB.

Molecule	response to plasma samples ([1]; healthy adult donors, samples diluted to 1% by volume in pH 7.4 HEPES buffer)	probe fluorescence after spiking plasma samples with UCB ([1]; samples A and B spiked with 5 μM UCB)	Kd [2] [nM]	response on titration with sodium oleate [3]	binding affinities relative to ADIFAB [4]	ΔI/Io 1:1 UCB:BSA 440 nm ([5]; UCB:BSA 1:1, emission 440 nm)	ΔI/Io 1:1 UCB:BSA 500 nm ([5]; UCB:BSA 1:1, emission 500 nm)	ΔI/Io 1:2 UCB:BSA 440 nm ([5]; UCB:BSA 1:2, emission 440 nm)	ΔI/Io 1:2 UCB:BSA 500 nm ([5]; UCB:BSA 1:2, emission 500 nm)
B1	Little to no response	substantial decrease in the fluorescence	150	no change in response	–	–	–	–	–
B2	–	–	–	–	about 10 fold	−0.40	−0.34	−0.19	−0.16
